The record followed here is paper PMC5921417, “The β-glucosidase secreted by Talaromyces amestolkiae under carbon starvation: a versatile catalyst for biofuel production from plant and algal biomass” (Biotechnology for Biofuels, 2018).

In data set [1] the test system is T1, O=[N+]([O-])c1ccc(O[C@@H]2O[C@H](CO)[C@@H](O)[C@H](O)[C@H]2O)cc1.
T1 construct: native enzyme secreted by T. amestolkiae, purified from culture (Mandels medium, glucose); signal peptide removed; glycosylated; gene codes for 857 aa; non-covalent dimer about 222 kDa; mature N-terminus YSPPAYP deduced from the cloning primer
Kind of data set: purified protein. The data set is classed as biochemical, Talaromyces amestolkiae. Conditions: sodium acetate 100 mM pH 4.0, 70 °C (standard reaction), 0.1% BSA.

Data set [2] has as its system O=[N+]([O-])c1ccccc1O[C@@H]1O[C@H](CO)[C@@H](O)[C@H](O)[C@H]1O. Nature of the data set: purified protein. Conditions: sodium acetate 100 mM pH 4.0, 70 °C (standard reaction), 0.1% BSA.
For data set [3], the target named is β-glucosidase BGL-3 from Talaromyces amestolkiae (native enzyme) (Talaromyces amestolkiae). Nature of the data set: SEC; Superose 12 column; native purified BGL-3; mass around 222 kDa against 107.0 kDa for the monomer by MALDI-TOF.

For the substance “BGL-3 (β-glucosidase g377) (Talaromyces amestolkiae)”, in data set [1], the Km came out at 140 ± 100 µM, the Vmax was 381 µmol/min/mg, the kcat amounted to 1360 s⁻¹ and the kcat/Km came to 9.71e+06 M⁻¹ s⁻¹. In data set [2], the Michaelis constant (Km) was 140 ± 100 µM, the Vmax came out at 142 µmol/min/mg, the kcat is 507 s⁻¹ and the catalytic efficiency (kcat/Km) is 3.43e+06 M⁻¹ s⁻¹.
With “β-glucosidase BGL-3 from Talaromyces amestolkiae (native enzyme)”, the stoichiometry N in data set [3] worked out at 2.
